The values that follow come from paper PMC4265565 (Protein expression and purification, 2012).

The target in the assay is XPB–p62–p44–p34 sub-complex (human, UniProt P19447 1-782; P32780 1-548; Q13888 1-395; Q13889 1-308). In words: SEC. In general terms: Size exclusion chromatography separates by hydrodynamic size, large species first.
XPB–p62–p44–p34 sub-complex, sequence (P19447 whole entry, chain 1 of 4): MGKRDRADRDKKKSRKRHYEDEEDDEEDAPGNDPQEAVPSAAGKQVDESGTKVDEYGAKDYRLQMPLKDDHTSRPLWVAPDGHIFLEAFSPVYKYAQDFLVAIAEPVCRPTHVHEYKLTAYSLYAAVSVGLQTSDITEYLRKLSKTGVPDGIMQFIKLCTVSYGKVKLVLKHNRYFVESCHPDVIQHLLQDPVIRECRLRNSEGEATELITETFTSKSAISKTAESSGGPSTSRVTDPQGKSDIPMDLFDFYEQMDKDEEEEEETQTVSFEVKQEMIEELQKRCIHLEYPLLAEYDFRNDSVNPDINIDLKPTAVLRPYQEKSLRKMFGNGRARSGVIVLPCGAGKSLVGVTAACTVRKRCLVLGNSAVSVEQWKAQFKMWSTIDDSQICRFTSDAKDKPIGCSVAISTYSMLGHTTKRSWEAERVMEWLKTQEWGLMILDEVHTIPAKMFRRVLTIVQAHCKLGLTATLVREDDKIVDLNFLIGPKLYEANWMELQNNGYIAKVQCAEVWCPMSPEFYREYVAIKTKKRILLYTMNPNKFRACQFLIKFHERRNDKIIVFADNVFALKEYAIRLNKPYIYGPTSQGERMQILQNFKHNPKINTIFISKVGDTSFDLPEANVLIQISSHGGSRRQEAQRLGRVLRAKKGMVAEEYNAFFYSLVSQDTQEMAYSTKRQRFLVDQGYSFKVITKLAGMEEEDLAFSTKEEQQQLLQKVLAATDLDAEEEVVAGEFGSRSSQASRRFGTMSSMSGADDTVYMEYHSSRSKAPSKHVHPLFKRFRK
XPB–p62–p44–p34 sub-complex, sequence (P32780 whole entry, chain 2 of 4): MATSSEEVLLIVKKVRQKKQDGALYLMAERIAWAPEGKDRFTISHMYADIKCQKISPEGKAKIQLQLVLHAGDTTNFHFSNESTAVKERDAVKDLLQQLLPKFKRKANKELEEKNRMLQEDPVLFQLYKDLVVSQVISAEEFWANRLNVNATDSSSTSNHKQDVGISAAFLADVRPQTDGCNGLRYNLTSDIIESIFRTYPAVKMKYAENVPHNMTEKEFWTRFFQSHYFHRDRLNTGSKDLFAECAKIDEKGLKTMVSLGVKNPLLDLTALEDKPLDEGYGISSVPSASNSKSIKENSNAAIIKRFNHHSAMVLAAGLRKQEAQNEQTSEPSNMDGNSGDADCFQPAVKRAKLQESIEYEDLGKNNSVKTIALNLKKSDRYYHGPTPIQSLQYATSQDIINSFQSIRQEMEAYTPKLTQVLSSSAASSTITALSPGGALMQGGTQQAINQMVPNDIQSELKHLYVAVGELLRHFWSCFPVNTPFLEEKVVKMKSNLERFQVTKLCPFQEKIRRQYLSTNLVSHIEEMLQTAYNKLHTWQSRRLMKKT
XPB–p62–p44–p34 sub-complex, sequence (Q13888 whole entry, chain 3 of 4): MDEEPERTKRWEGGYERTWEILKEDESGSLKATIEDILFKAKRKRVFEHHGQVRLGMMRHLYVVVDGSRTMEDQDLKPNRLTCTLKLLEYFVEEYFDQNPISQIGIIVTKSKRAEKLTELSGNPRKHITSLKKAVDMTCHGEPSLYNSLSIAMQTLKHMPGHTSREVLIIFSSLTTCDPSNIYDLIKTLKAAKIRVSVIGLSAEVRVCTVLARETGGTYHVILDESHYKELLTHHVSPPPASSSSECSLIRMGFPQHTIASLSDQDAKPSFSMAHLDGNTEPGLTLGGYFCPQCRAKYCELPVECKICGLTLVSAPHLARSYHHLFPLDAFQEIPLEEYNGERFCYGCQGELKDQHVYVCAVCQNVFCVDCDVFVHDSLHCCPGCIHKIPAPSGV
XPB–p62–p44–p34 sub-complex, sequence (Q13889 whole entry, chain 4 of 4): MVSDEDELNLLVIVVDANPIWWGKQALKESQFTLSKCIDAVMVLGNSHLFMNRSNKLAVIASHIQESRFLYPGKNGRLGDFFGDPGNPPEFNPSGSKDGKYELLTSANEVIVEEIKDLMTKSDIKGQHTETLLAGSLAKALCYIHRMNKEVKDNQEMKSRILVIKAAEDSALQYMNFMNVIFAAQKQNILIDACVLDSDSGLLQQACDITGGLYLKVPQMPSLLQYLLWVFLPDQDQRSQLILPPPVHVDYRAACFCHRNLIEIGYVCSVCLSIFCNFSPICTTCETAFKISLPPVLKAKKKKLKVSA

B1: GST–p8 (natural protein, human, UniProt Q6ZYL4 1-71, looked up)
chain: MVNVLKGVLIECDPAMKQFLLYLDESNALGKKFIIQDIDDTHVFVIAELVNVLQERVGELMDQNAFSLTQK
Turning to B1, the binding result is “binds”.
